For assay [1], the target named is T1, MAGE-A3 peptide on HLA-A*01:01 (human).
T1 peptide: EVDPIGHLY
Kind of assay: multimer staining.

Assay [2] deals with NY-ESO-1 peptide on HLA-B*40:01 (human). Briefly: killing.
Assay [3] concerns the target T2, MAGE-A3 peptide on HLA-DRB1*13:02 (human).
T2 peptide: TSYVKVLHHMVKISG
Kind of assay: cytokine release.

Assay [4] addresses T3, NY-ESO-1 peptide on HLA-B*35:03 (human).
T3 peptide: MPFATPMEA
Briefly: killing.

In assay [5] the target is T4, NY-ESO-1 peptide on HLA-B*35:03 (human).
T4 peptide: MPFATPMEAEL
Briefly: killing.

In assay [6] the target is T5, KRAS Q61H peptide on HLA-A*01:01 (human).
T5 peptide: ILDTAGHEEY
Briefly: IFNγ ELISPOT; peptide titration (1 µM to 0.1 nM) on HLA-A*01:01-transfected K562; full-length, on cells.

Assay [7] deals with T6, MAGE-A3 peptide on HLA-DRB1*11:01 (human).
T6 peptide: TSYVKVLHHMVKISG
Kind of assay: cytokine release.

Assay [8] concerns the target T1, MAGE-A3 peptide on HLA-A*01:01. Kind of assay: cytokine release.
In assay [9] the target is T7, NY-ESO-1 peptide on HLA-A*02:01 (human).
T7 peptide: SLLMWITQC
Briefly: killing.

The target of assay [10] is T8, NY-ESO-1 peptide on HLA-C*03:04 (human).
T8 peptide: FATPMEAEL
Kind of assay: multimer staining.

B1: TCRCD8-MA3#7 (TCR, V domains shown)
Valpha: ELKVEQNPLFLSMQEGKNYTIYCNYSTTSDRLYWYRQDPGKSLESLFVLLSNGAVKQEGRLMASLDTKARLSTLHITAAVHDLSATYFCAEPNTDKLIFGTGTRLQVFP
Vbeta: DAMVIQNPRYQVTQFGKPVTLSCSQTLNHNVMYWYQQKSSQAPKLLFHYYDKDFNNEADTPDNFQSRRPNTSFCFLDIRSPGLGDTAMYLCATNYDRGYEQYFGPGTRLTVT
For B1, the binding result in assay [1] is “recognises”.

B2: TCRCD8-MA3#8 (TCR, V domains shown)
Valpha: QKEVEQNSGPLSVPEGAIASLNCTYSDRGSQSFFWYRQYSGKSPELIMFIYSNGDKEDGRFTAQLNKASQYVSLLIRDSQPSDSATYLCAVWATGNQFYFGTGTSLTVIP
Vbeta: DAMVIQNPRYQVTQFGKPVTLSCSQTLNHNVMYWYQQKSSQAPKLLFHYYDKDFNNEADTPDNFQSRRPNTSFCFLDIRSPGLGDTAMYLCATSFDRGYEQYFGPGTRLTVT
B2: the binding result in [1] is given as “recognises”.

B3: TCRCD8-53-02-NY #109 (TCR, V domains shown)
Valpha: GQQVMQIPQYQHVQEGEDFTTYCNSSTTLSNIQWYKQRPGGHPVFLIQLVKSGEVKKQKRLTFQFGEAKKNSSLHITATQTTDVGTYFCADNAGNMLTFGGGTRLMVKP
Vbeta: GAVVSQHPSWVICKSGTSVKIECRSLDFQATTMFWYRQFPKQSLMLMATSNEGSKATYEQGVEKDKFLINHASLTLSTLTVTSAHPEDSSFYICSARDPGRNYGYTFGSGTRLTVV
Consider B3, for which the binding result in assay [2] is “recognises”.

B4: TCRCD8-53-02-NY #110 (TCR, V domains shown)
Valpha: GQQVMQIPQYQHVQEGEDFTTYCNSSTTLSNIQWYKQRPGGHPVFLIQLVKSGEVKKQKRLTFQFGEAKKNSSLHITATQTTDVGTYFCGDNAGNMLTFGGGTRLMVKP
Vbeta: GAVVSQHPSWVICKSGTSVKIECRSLDFQATTMFWYRQFPKQSLMLMATSNEGSKATYEQGVEKDKFLINHASLTLSTLTVTSAHPEDSSFYICSARDEDRPYGYTFGSGTRLTVV
As for B4, the binding result in assay [2] is “recognises”.

B5: TCRCD4-MA3#5 (TCR, V domains shown)
Valpha: AQSVTQLGSHVSVSEGALVLLRCNYSSSVPPYLFWYVQYPNQGLQLLLKYTSAATLVKGINGFEAEFKKSETSFHLTKPSAHMSDAAEYFCAVSDGGATNKLIFGTGTLLAVQP
Vbeta: DGGITQSPKYLFRKEGQNVTLSCEQNLNHDAMYWYRQDPGQGLRLIYYSQIVNDFQKGDIAEGYSVSREKKESFPLTVTSAQKNPTAFYLCASSSGGRASFTQYFGPGTRLTVL
Consider B5, for which the binding result in [3] is recorded as “recognises”.

B6: TCRCD8-MA3#10 (TCR, V domains shown)
Valpha: RKEVEQDPGPFNVPEGATVAFNCTYSNSASQSFFWYRQDCRKEPKLLMSVYSSGNEDGRFTAQLNRASQYISLLIRDSKLSDSATYLCVVNERNSGYALNFGKGTSLLVTP
Vbeta: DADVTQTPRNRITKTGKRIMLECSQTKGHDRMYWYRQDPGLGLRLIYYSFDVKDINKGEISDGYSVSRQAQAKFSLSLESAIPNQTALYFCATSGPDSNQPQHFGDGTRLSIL
With B6, in assay [1], the binding result is on record as “recognises”.

B7: TCRCD8-NY#101 (TCR, V domains shown)
Valpha: AQTVTQSQPEMSVQEAETVTLSCTYDTSESDYYLFWYKQPPSRQMILVIRQEAYKQQNATENRFSVNFQKAAKSFSLKISDSQLGDAAMYFCAYRSDAGGTSYGKLTFGQGTILTVHP
Vbeta: ETGVTQSPTHLIKTRGQQVTLRCSSQSGHNTVSWYQQALGQGPQFIFQYYREEENGRGNFPPRFSGLQFPNYSSELNVNALELDDSALYLCASSPRTGGAGNTIYFGEGSWLTVV
As for B7, in assay [4], the binding result was “recognises”.

B8: TCRCD8-NY#102 (TCR, V domains shown)
Valpha: AQSVAQPEDQVNVAEGNPLTVKCTYSVSGNPYLFWYVQYPNRGLQFLLKYITGDNLVKGSYGFEAEFNKSQTSFHLKKPSALVSDSALYFCAVRDIEVVNAGNMLTFGGGTRLMVKP
Vbeta: ETGVTQSPTHLIKTRGQQVTLRCSSQSGHNTVSWYQQALGQGPQFIFQYYREEENGRGNFPPRFSGLQFPNYSSELNVNALELDDSALYLCASTDRVRYEQFFGPGTRLTVL
As to B8, the binding result in [5] was “recognises”.

B9: TCRCD8-EL8-LM7 #4 (TCR, V domains shown)
Valpha: AQKVTQAQTEISVVEKEDVTLDCVYETRDTTYYLFWYKQPPSGELVFLIRRNSFDEQNEISGRYSWNFQKSTSSFNFTITASQVVDSAVYFCALSNAGGTSYGKLTFGQGTILTVHP
Vbeta: EAQVTQNPRYLITVTGKKLTVTCSQNMNHEYMSWYRQDPGLGLRQIYYSMNVEVTDKGDVPEGYKVSRKEKRNFPLILESPSPNQTSLYFCASSRRLPPPYGYTFGSGTRLTVV
As to B9, the “minimal recognised peptide concentration” value in assay [6] amounted to 10 nM.

B10: TCRCD8-EL8-LM7 #7 (TCR, V domains shown)
Valpha: AQKVTQAQTEISVVEKEDVTLDCVYETRDTTYYLFWYKQPPSGELVFLIRRNSFDEQNEISGRYSWNFQKSTSSFNFTITASQVVDSAVYFCALSESSNTGKLIFGQGTTLQVKP
Vbeta: EAQVTQNPRYLITVTGKKLTVTCSQNMNHEYMSWYRQDPGLGLRQIYYSMNVEVTDKGDVPEGYKVSRKEKRNFPLILESPSPNQTSLYFCASSRREPPPYGYTFGSGTRLTVV
Consider B10, for which the “minimal recognised peptide concentration” value in [6] was 10 nM.

B11: TCRCD8-NY#99 (TCR, V domains shown)
Valpha: KQEVTQIPAALSVPEGENLVLNCSFTDSAIYNLQWFRQDPGKGLTSLLLIQSSQREQTSGRLNASLDKSSGRSTLYIAASQPGDSATYLCAPNDYKLSFGAGTTVTVRA
Vbeta: KAGVTQTPRYLIKTRGQQVTLSCSPISGHRSVSWYQQTPGQGLQFLFEYFSETQRNKGNFPGRFSGRQFSNSRSEMNVSTLELGDSALYLCASSFSSDNEQFFGPGTRLTVL
Take B11: the binding result in assay [5] is reported as “recognises”.

B12: TCRCD8-NY#100 (TCR, V domains shown)
Valpha: SQQGEEDPQALSIQEGENATMNCSYKTSINNLQWYRQNSGRGLVHLILIRSNEREKHSGRLRVTLDTSKKSSSLLITASRAADTASYFCATDSNDYKLSFGAGTTVTVRA
Vbeta: GAGVSQSPRYKVTKRGQDVALRCDPISGHVSLYWYRQALGQGPEFLTYFNYEAQQDKSGLPNDRFSAERPEGSISTLTIQRTEQRDSAMYRCASSWGGELFFGEGSRLTVL
As for B12, the binding result in assay [5] was “recognises”.

B13: TCRCD4-MA3#9 (TCR, V domains shown)
Valpha: GNSVTQMEGPVTLSEEAFLTINCTYTATGYPSLFWYVQYPGEGLQLLLKATKADDKGSNKGFEATYRKETTSFHLEKGSVQVSDSAVYFCALSDPNNQGGKLIFGQGTELSVKP
Vbeta: DTAVSQTPKYLVTQMGNDKSIKCEQNLGHDTMYWYKQDSKKFLKIMFSYNNKELIINETVPNRFSPKSPDKAHLNLHINSLELGDSAVYFCASSQVRGTTEAFFGQGTRLTVV
Take B13: the binding result in assay [7] is reported as “recognises”.

B14: TCRCD8-EL8-LM7 #1 (TCR, V domains shown)
Valpha: AQKITQTQPGMFVQEKEAVTLDCTYDTSDPSYGLFWYKQPSSGEMIFLIYQGSYDQQNATEGRYSLNFQKARKSANLVISASQLGDSAMYFCAMREGQDSSYKLIFGSGTRLLVRP
Vbeta: DSGVTQTPKHLITATGQRVTLRCSPRSGDLSVYWYQQSLDQGLQFLIQYYNGEERAKGNILERFSAQQFPDLHSELNLSSLELGDSALYFCASSVLGPNTEAFFGQGTRLTVV
B14: the “minimal recognised peptide concentration” value in assay [6] was 10 nM.

B15: TCRCD8-C1-40-MA3 #1 (TCR, V domains shown)
Valpha: GQQLNQSPQSMFIQEGEDVSMNCTSSSIFNTWLWYKQEPGEGPVLLIALYKAGELTSNGRLTAQFGITRKDSFLNISASIPSDVGIYFCAGQLRYGGATNKLIFGTGTLLAVQP
Vbeta: DSGVTQTPKHLITATGQRVTLRCSPRSGDLSVYWYQQSLDQGLQFLIHYYNGEERAKGNILERFSAQQFPDLHSELNLSSLELGDSALYFCASSVGGASYEQYFGPGTRLTVT
For the molecule B15, the binding result in assay [8] was “recognises”.

B16: TCRCD8-EL28-NYE #2 (TCR, V domains shown)
Valpha: SQELEQSPQSLIVQEGKNLTINCTSSKTLYGLYWYKQKYGEGLIFLMMLQKGGEEKSHEKITAKLDEKKQQSSLHITASQPSHAGIYLCGADMLDYQKVTFGIGTKLQVIP
Vbeta: DAGVIQSPRHEVTEMGQEVTLRCKPISGHDYLFWYRQTMMRGLELLIYFNNNVPIDDSGMPEDRFSAKMPNASFSTLKIQPSEPRDSAVYFCASRRGGSEQYFGPGTRLTVT
Take B16: the binding result in assay [9] is given as “recognises”.

B17: TCRCD8-53-02-NY #107 (TCR, V domains shown)
Valpha: GQNIDQPTEMTATEGAIVQINCTYQTSGFNGLFWYQQHAGEAPTFLSYNVLDGLEEKGRFSSFLSRSKGYSYLLLKELQMKDSASYLCAVRLGDAGNMLTFGGGTRLMVKP
Vbeta: DSGVTQTPKHLITATGQRVTLRCSPRSGDLSVYWYQQSLDQGLQFLIQYYNGEERAKGNILERFSAQQFPDLHSELNLSSLELGDSALYFCASSVGRGMNTEAFFGQGTRLTVV
Take B17: in [10], the binding result is reported as “recognises”.

Values taken from patent publication US20230405046A1 (published 2023).
